Results reported in patent US20210380703A1.

target: human Fc (human); experiment: ELISA, negative control

Row | Binder | optical density [OD]
1 | 371_A05 (antibody, V domains shown) VH: EVQLLESGGGLVQPGGSLRLSCAASGFTFSSYGMHWVRQAPGKGLEWVSNINYNGGYKSYADSVKGRFTISRDNSKNTLYLQMNSLRAEDTAVYYCARAATWHDTHLDYWGQGTLVTVSS VL: DIQMTQSPSSLSASVGDRVTITCRASQSILTYLNWYQQKPGKAPKLLIYAATSRASGVPSRFSGSGSGTDFTLTISSLQPEDFATYYCQQSDNLPLTFGGGTKVEIK | 0.369
2 | 373_D11 (antibody, V domains shown) VH: EVQLLESGGGLVQPGGSLRLSCAASGFTFSSYGMHWVRQAPGKGLEWVAGINYNGGYTSYADSVKGRFTISRDNSKNTLYLQMNSLRAEDTAVYYCARAATWHDTHLDYWGQGTLVTVSS VL: DIQMTQSPSSLSASVGDRVTITCRASQSILTYVNWYQQKPGKAPKLLIYAATSRASGVPSRFSGSGSGTDFTLTISSLQPEDFATYYCQQSYDNPLTFGGGTKVEIK | 0.364
3 | 375_C03 (antibody, V domains shown) VH: EVQLLESGGGLVQPGGSLRLSCAASGFTFDSYSMHWVRQAPGKGLEWVSGINYNGGYTSYADSVKGRFTISRDNSKNTLYLQMNSLRAEDTAVYYCARAATWHDTHLDYWGQGTLVTVSS VL: DIQMTQSPSSLSASVGDRVTITCRASQSILSYVNWYQQKPGKAPKLVIYAATSRASGVPSRFSGSGSGTDFTLTISSLQPEDFATYYCQQSYESPLTFGGGTKVEIK | 0.217
4 | 375_H04 (antibody, V domains shown) VH: EVQLLESGGGLVQPGGSLRLSCAASGFTFSSYGMHWVRQAPGKGLEWVAGINYNSGYTGYADSVKGRFTISRDNSKNTLYLQMNSLRAEDTAVYYCARAATWHDTHLDYWGQGTLVTVSS VL: DIQMTQSPSSLSASVGDRVTITCRASQSILSYLNWYQQKPGKAPKLVIYAATSRASGVPSRFSGSGSGTDFTLTISSLQPEDFATYYCQQSYSNPLTFGGGTKVEIK | 0.181
5 | 370_E12 (antibody, V domains shown) VH: EVQLLESGGGLVQPGGSLRLSCAASGFTFDSYGMHWVRQAPGKGLEWVAGINYNGGYTSYADSVKGRFTISRDNSKNTLYLQMNSLRAEDTAVYYCARAATWHDTHLDYWGQGTLVTVSS VL: DIQMTQSPSSLSASVGDRVTITCRASQSILSYVNWYQQKPGKAPKLLIYAATSRASGVPSRFSGSGSGTDFTLTISSLQPEDFATYYCQQSYENPLTFGGGTKVEIK | 0.656
6 | 374_A10 (antibody, V domains shown) VH: EVQLLESGGGLVQPGGSLRLSCAASGFTFSSYGMHWVRQAPGKGLEWVSGINYNGGYTSYADSVKGRFTISRDNSKNTLYLQMNSLRAEDTAVYYCARAATWHDTHLDYWGQGTLVTVSS VL: DIQMTQSPSSLSASVGDRVTITCRASQSILSYVNWYQQKPGKAPKLLIYAATSRASGVPSRFSGSGSGTDFTLTISSLQPEDFATYYCQQSYDTPLTFGGGTKVEIK | 0.23
7 | 370_B06 (antibody, V domains shown) VH: EVQLLESGGGLVQPGGSLRLSCAASGFTFSSYGMHWVRQAPGKGLEWVAGINYNGGYTSYADSVKGRFTISRDNSKNTLYLQMNSLRAEDTAVYYCARAATWHDTHLDYWGQGTLVTVSS VL: DIQMTQSPSSLSASVGDRVTITCRASQSIVSYVNWYQQKPGKAPKLVIYAATSRASGVPSRFSGSGSGTDFTLTISSLQPEDFATYYCQQSYETPLTFGGGTKVEIK | 0.441
8 | 374_A12 (antibody, V domains shown) VH: EVQLLESGGGLVQPGGSLRLSCAASGFTFDSYGMHWVRQAPGKGLEWVSSINYNGGYTSYADSVKGRFTISRDNSKNTLYLQMNSLRAEDTAVYYCARAATWHDTHLDYWGQGTLVTVSS VL: DIQMTQSPSSLSASVGDRVTITCRASQSILTYLNWYQQKPGKAPKLLIYAATSRASGVPSRFSGSGSGTDFTLTISSLQPEDFATYYCQQSDSNPLTFGGGTKVEIK | 0.308
9 | 372_D07 (antibody, V domains shown) VH: EVQLLESGGGLVQPGGSLRLSCAASGFTFSSYGMNWVRQAPGKGLEWVAGINYNGGYTSYADSVKGRFTISRDNSKNTLYLQMNSLRAEDTAVYYCARAATWHDTHLDYWGQGTLVTVSS VL: DIQMTQSPSSLSASVGDRVTITCRASQSILSYLNWYQQKPGKAPKLLIYAATSRASGVPSRFSGSGSGTDFTLTISSLQPEDFATYYCQQSYESPLTFGGGTKVEIK | 0.472
10 | 375_D02 (antibody, V domains shown) VH: EVQLLESGGGLVQPGGSLRLSCAASGFTFSSYSMNWVRQAPGKGLEWVSNINYNGGYTSYADSVKGRFTISRDNSKNTLYLQMNSLRAEDTAVYYCARAATWHDTHLDYWGQGTLVTVSS VL: DIQMTQSPSSLSASVGDRVTITCRASQSILTYLNWYQQKPGKAPKLLIYAASSLQSGVPSRFSGSGSGTDFTLTISSLQPEDFATYYCQQSYELPLTFGGGTKVEIK | 0.191

Further lines, results first:

Row | optical density [OD] | Binder
11 | 0.63 | 369_E03 (antibody, V domains shown) VH: EVQLLESGGGLVQPGGSLRLSCAASGFTFSSYGMHWVRQAPGKGLEWVAGINYNGGYTSYADSVKGRFTISRDNSKNTLYLQMNSLRAEDTAVYYCARAATWHDTHLDYWGQGTLVTVSS VL: DIQMTQSPSSLSASVGDRVTITCRASQSILSYVNWYQQKPGKAPKLLIYAATSLASGVPSRFSGSGSGTDFTLTISSLQPEDFATYYCQQSYENPLTFGGGTKVEIK
12 | 0.25 | 374_B07 (antibody, V domains shown) VH: EVQLLESGGGLVQPGGSLRLSCAASGFTFSSYGMHWVRQAPGKGLEWVSSINYNGGYKSYADSVKGRFTISRDNSKNTLYLQMNSLRAEDTAVYYCARAATWHDTHLDYWGQGTLVTVSS VL: DIQMTQSPSSLSASVGDRVTITCRASQSIISYLNWYQQKPGKAPKLLIYAATSLASGVPSRFSGSGSGTDFTLTISSLQPEDFATYYCQQSYESPLTFGGGTKVEIK
13 | 0.196 | 373_G06 (antibody, V domains shown) VH: EVQLLESGGGLVQPGGSLRLSCAASGFTFSSYGMHWVRQAPGKGLEWVASINYNSGYTGYADSVKGRFTISRDNSKNTLYLQMNSLRAEDTAVYYCARAATWHDTHLDYWGQGTLVTVSS VL: DIQMTQSPSSLSASVGDRVTITCRASQSILSYVNWYQQKPGKAPKLLIYAATSLASGVPSRFSGSGSGTDFTLTISSLQPEDFATYYCQQSYNLPLTFGGGTKVEIK
14 | 0.197 | 373_B01 (antibody, V domains shown) VH: EVQLLESGGGLVQPGGSLRLSCAASGFTFDSYGMHWVRQAPGKGLEWVSGINYNGGYKSYADSVKGRFTISRDNSKNTLYLQMNSLRAEDTAVYYCARAATWHDTHLDYWGQGTLVTVSS VL: DIQMTQSPSSLSASVGDRVTITCRASQSILSYVNWYQQKPGKAPKLVIYAATSRASGVPSRFSGSGSGTDFTLTISSLQPEDFATYYCQQSYDLPLTFGGGTKVEIK
15 | 0.449 | 371_B02 (antibody, V domains shown) VH: EVQLLESGGGLVQPGGSLRLSCAASGFTFDSYGMNWVRQAPGKGLEWVSNINYNGGYTSYADSVKGRFTISRDNSKNTLYLQMNSLRAEDTAVYYCARAATWHDTHLDYWGQGTLVTVSS VL: DIQMTQSPSSLSASVGDRVTITCRASQSILTYVNWYQQKPGKAPKLVIYAATSLASGVPSRFSGSGSGTDFTLTISSLQPEDFATYYCQQSYNNPLTFGGGTKVEIK
16 | 0.364 | 370_H05 (antibody, V domains shown) VH: EVQLLESGGGLVQPGGSLRLSCAASGFTFSSYGMHWVRQAPGKGLEWVSNINYNGGYTSYADSVKGRFTISRDNSKNTLYLQMNSLRAEDTAVYYCARAATWHDTHLDYWGQGTLVTVSS VL: DIQMTQSPSSLSASVGDRVTITCRASQSILSYLNWYQQKPGKAPKLLIYAASSLQSGVPSRFSGSGSGTDFTLTISSLQPEDFATYYCQQSDSLPLTFGGGTKVEIK
17 | 0.339 | 371_D05 (antibody, V domains shown) VH: EVQLLESGGGLVQPGGSLRLSCAASGFTFDDYGMHWVRQAPGKGLEWVSGINYNGGYTSYADSVKGRFTISRDNSKNTLYLQMNSLRAEDTAVYYCARAATWHDTHLDYWGQGTLVTVSS VL: DIQMTQSPSSLSASVGDRVTITCRASQSILTYLNWYQQKPGKAPKLLIYAASSLQSGVPSRFSGSGSGTDFTLTISSLQPEDFATYYCQQSYDSPLTFGGGTKVEIK
18 | 0.425 | 371_F07 (antibody, V domains shown) VH: EVQLLESGGGLVQPGGSLRLSCAASGFTFSSYGMHWVRQAPGKGLEWVAGINYNGGYTSYADSVKGRFTISRDNSKNTLYLQMNSLRAEDTAVYYCARAATWHDTHLDYWGQGTLVTVSS VL: DIQMTQSPSSLSASVGDRVTITCRASQSILTYLNWYQQKPGKAPKLLIYAATSLASGVPSRFSGSGSGTDFTLTISSLQPEDFATYYCQQSDSNPLTFGGGTKVEIK
19 | 0.336 | 366_A02 (antibody, V domains shown) VH: EVQLLESGGGLVQPGGSLRLSCAASGFTFDSYGMNWVRQAPGKGLEWVASINYNSGYKGYADSVKGRFTISRDNSKNTLYLQMNSLRAEDTAVYYCARAANWHDTHLDYWGQGTLVTVSS VL: DIQMTQSPSSLSASVGDRVTITCRASQSIVSYVNWYQQKPGKAPKLLIYAATSRASGVPSRFSGSGSGTDFTLTISSLQPEDFATYYCQQSYDLPLTFGGGTKVEIK
20 | 0.372 | 371_C02 (antibody, V domains shown) VH: EVQLLESGGGLVQPGGSLRLSCAASGFTFDSYGMHWVRQAPGKGLEWVAGINYNSGYTGYADSVKGRFTISRDNSKNTLYLQMNSLRAEDTAVYYCARAATWHDTHLDYWGQGTLVTVSS VL: DIQMTQSPSSLSASVGDRVTITCRASQSILTYVNWYQQKPGKAPKLLIYAASSLQSGVPSRFSGSGSGTDFTLTISSLQPEDFATYYCQQSYDTPLTFGGGTKVEIK
21 | 0.173 | 374_B01 (antibody, V domains shown) VH: EVQLLESGGGLVQPGGSLRLSCAASGFTFDSYGMHWVRQAPGKGLEWVAGINYNSGYTSYADSVKGRFTISRDNSKNTLYLQMNSLRAEDTAVYYCARAATWHDTHLDYWGQGTLVTVSS VL: DIQMTQSPSSLSASVGDRVTITCRASQSILSYLNWYQQKPGKAPKLLIYAASSLQSGVPSRFSGSGSGTDFTLTISSLQPEDFATYYCQQSYDSPLTFGGGTKVEIK
22 | 0.549 | 371_B11 (antibody, V domains shown) VH: EVQLLESGGGLVQPGGSLRLSCAASGFTFSSYSMHWVRQAPGKGLEWVASINYNSGYTSYADSVKGRFTISRDNSKNTLYLQMNSLRAEDTAVYYCARAATWHDTHLDYWGQGTLVTVSS VL: DIQMTQSPSSLSASVGDRVTITCRASQSILTYLNWYQQKPGKAPKLLIYAATSRASGVPSRFSGSGSGTDFTLTISSLQPEDFATYYCQQSYELPLTFGGGTKVEIK
